US20120301394A1 (published 2012)
Values belong to the binder of their own block, whether it stands above or below them.

Tests used:
[1] = target: T1, Recombinant human MMR (R&D systems) (human, UniProt P22897 19-1383); assay: listed as a cross-reactive Nb; selection by PE-ELISA on human MMR (Example 26)
T1 construct: Bought protein (R&D Systems #2534) coated on ELISA plates; also called hMMR; MRC1
T1 sequence: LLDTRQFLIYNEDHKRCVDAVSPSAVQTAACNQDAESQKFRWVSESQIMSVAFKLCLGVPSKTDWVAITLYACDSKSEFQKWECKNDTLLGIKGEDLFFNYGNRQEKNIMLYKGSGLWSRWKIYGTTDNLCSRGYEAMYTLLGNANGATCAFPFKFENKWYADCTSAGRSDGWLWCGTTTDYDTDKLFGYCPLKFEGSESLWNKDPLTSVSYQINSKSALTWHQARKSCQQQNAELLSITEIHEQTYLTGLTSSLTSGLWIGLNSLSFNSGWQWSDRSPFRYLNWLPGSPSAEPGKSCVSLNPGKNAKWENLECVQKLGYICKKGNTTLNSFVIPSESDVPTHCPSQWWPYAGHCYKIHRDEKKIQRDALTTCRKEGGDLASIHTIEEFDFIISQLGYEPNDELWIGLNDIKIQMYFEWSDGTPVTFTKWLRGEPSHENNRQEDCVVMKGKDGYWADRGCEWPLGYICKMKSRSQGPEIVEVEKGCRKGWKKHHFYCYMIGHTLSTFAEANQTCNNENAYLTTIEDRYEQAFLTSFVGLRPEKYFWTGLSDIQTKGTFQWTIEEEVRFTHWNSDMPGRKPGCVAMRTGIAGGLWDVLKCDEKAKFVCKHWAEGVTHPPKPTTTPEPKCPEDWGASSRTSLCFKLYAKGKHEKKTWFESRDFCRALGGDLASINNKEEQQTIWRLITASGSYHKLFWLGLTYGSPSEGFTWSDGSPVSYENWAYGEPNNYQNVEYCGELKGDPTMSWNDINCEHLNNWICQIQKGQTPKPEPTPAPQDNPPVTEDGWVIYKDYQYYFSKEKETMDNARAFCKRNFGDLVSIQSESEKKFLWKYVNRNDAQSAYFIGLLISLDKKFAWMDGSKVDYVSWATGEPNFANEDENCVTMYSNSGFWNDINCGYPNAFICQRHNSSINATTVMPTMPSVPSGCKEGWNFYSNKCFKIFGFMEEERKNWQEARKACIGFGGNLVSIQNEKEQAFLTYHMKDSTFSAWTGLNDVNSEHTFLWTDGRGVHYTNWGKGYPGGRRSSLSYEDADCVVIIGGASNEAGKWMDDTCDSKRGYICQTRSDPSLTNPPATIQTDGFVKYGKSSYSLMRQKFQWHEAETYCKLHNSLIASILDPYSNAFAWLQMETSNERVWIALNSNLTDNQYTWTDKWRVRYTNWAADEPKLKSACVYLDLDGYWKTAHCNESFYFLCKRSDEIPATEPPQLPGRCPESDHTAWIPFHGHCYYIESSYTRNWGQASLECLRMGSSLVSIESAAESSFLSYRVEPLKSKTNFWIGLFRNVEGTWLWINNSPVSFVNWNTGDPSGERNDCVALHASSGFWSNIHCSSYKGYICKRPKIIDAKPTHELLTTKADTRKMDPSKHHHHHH

[2] = target: T2, Recombinant mouse MMR (R&D systems) (mouse, UniProt Q61830 20-1388); assay: SPR on immobilized recombinant MMR
T2 construct: Bought recombinant extracellular portion of mouse MMR with a C-terminal His tag; It was immobilized on the CM5 chip for SPR and coated on plates for PE-ELISA; The SPR methods say only 'MMR'; also called mMMR; recombinant MMR
T2 sequence: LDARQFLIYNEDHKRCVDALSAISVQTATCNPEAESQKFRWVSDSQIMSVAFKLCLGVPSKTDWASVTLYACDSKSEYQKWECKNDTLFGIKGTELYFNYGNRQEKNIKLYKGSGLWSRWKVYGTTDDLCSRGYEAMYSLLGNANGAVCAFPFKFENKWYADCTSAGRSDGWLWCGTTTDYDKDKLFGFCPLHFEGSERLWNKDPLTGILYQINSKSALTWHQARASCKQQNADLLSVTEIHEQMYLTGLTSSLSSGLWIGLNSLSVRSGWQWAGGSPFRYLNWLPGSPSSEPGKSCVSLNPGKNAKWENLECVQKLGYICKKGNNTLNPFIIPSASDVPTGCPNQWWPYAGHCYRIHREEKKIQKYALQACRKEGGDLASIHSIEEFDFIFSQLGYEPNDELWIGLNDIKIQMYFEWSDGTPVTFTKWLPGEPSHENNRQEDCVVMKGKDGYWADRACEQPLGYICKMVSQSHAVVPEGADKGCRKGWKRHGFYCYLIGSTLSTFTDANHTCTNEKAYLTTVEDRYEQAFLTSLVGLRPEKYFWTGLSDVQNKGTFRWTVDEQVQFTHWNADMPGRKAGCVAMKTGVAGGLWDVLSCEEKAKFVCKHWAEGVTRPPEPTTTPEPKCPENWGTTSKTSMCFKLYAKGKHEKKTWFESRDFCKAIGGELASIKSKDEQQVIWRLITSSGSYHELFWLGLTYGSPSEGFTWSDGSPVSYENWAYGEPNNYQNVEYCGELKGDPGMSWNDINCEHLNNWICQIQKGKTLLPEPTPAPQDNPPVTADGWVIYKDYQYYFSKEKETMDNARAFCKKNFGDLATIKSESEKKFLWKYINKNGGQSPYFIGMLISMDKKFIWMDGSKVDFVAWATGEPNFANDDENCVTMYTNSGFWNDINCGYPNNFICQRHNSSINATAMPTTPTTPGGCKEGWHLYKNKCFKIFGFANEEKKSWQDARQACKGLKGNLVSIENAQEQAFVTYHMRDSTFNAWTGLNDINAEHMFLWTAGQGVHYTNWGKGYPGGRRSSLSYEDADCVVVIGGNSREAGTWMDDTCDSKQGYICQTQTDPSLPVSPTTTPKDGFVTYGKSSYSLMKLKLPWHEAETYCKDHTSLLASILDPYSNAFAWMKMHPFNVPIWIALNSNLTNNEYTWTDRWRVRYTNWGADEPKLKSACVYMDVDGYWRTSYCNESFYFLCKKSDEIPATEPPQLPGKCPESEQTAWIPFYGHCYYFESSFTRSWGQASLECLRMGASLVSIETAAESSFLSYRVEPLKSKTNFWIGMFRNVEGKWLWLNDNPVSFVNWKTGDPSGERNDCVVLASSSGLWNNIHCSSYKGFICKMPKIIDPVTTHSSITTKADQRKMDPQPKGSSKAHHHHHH
Description: (§1) Affinity analysis was performed using a BIAcore T100 (GE Healthcare) with HEPES-buffered saline running buffer (10 mM HEPES with 0.15 M NaCl, 3.4 mM EDTA and 0.005% surfactant P20 at pH 7.4). MRR was immobilized on a CM5 chip in acetate buffer 50 mM (pH 5.0), resulting in 2100 RU MMR coated on the chip. A second channel on the same chip was activated/deactivated in a similar way and served as a negative control. The MMR Nanobodies were used as analytes in eleven different concentrations, ranging from 1 to 2000 nM, at a flow rate of […]. Glycine-HCl 50 mM (pH 2.0) was used for elution. The kinetic and equilibrium parameters (kd, ka and KD) values were calculated from the combined sensogram of all concentrations using BIAcore T100 evaluation software 2.02 (GE Healthcare).
Nanobodies (Nb) were raised against the recombinant extracellular portion of MMR (α-MMR Nb), as described in the Materials and Methods (see also Example 9; Table 4). The binding characteristics of the monovalent anti-MMR nanobodies were compared using surface Plasmon resonance measurements (Table 5). […] Further, bivalent nanobodies were constructed by linking two anti-MMR nanobody 1 entities using (G₄S)₃ ([…]; SEQ ID NO:121), llama IgG2 hinge ([…]; SEQ ID NO:122) or human IgA hinge ([…] SEQ ID NO:123) linkers. […] As a negative control nanobody in all experiments, we consistently used α-BCII10 Nb, which is a binder of the β-lactamase BCII enzyme of Bacillus cereus.

[3] = target: T2, Recombinant mouse MMR (R&D systems); assay: SPR, BIAcore T100, MMR immobilized on CM5 chip, Nb as analyte
Description: as §1
Nanobodies (Nb) were raised against the recombinant extracellular portion of MMR (α-MMR Nb), as described in the Materials and Methods (see also Example 9; Table 4). The binding characteristics of the monovalent anti-MMR nanobodies were compared using surface Plasmon resonance measurements (Table 5). […] Further, bivalent nanobodies were constructed by linking two anti-MMR nanobody 1 entities using (G₄S)₃ ([…]; SEQ ID NO:121), llama IgG2 hinge ([…]; SEQ ID NO:122) or human IgA hinge ([…] SEQ ID NO:123) linkers. […]

[4] = target: T1, Recombinant human MMR (R&D systems); assay: PE-ELISA, periplasmic extract on coated human MMR, OD405 at least 3x over milk-blocking proteins
[5] = target: T2, Recombinant mouse MMR (R&D systems); assay: listed as a cross-reactive Nb; selection by PE-ELISA on mouse MMR (Example 26)
[6] = target: T2, Recombinant mouse MMR (R&D systems); assay: SPR, BIAcore T100, MMR immobilized on CM5 chip, bivalent Nb as analyte
Description: as §1

binding result [1]: binds
B1: NbhmMMRm7.67 (VHH)
VHH: QVQLQESGGGLVQAGGSLRLSCVDQGRTFSVNAMAWYRQAPGKQRELVASITSSGLDTQYAEGMKGRFTISKGNDKFSTYLQMNNLKPDDTAVYYCNAERWDNGMVYWGKGTQVTVSS

binding result [4]: binds
B3: NbhMMRm11.5 (VHH)
VHH: QVQLQESGGGLVQPGGSLMLSCAASGNIFTINRMGWYRQAPGKQRELVAAITSGGNTNYADSVKGRFTISRDNAKNTVYLQMNSLKPEDTAVYYCNAAIVTMTSPYSDYWGQGTQVTVSS
notes: Tested as a periplasmic extract in PE-ELISA

binding result [1]: binds
binding result [5]: binds
B4: NbhmMMRm26.70 (VHH)
VHH: QVQLQESGGGLVQPGGSLRLSCTASGFPFSSAPMSWVRQAPGKELEWVSYIGYTGTITDYANSVKGRFTISRDNAKNRLYLQMNSLKPEDTAVYFCAQGYARLIADSDLVRGQGTQVTVSS

fold higher avidity compared to the monovalent clone 1 nanobody [2]: 5 fold
Kd [6]: 4.69 nM
B7: bivalent anti-MMR Nanobody 1 with human IgA hinge linker (VHH)
chain: QVQLQESGGGLVQPGGSLRLSCAASGNIFSINAIGWYRQAPGKQRELVATITLSGSTNYADSVKGRFSISRDNAKNTVYLQMNSLKPEDTAVYYCNANTYSDSDVYGYWGQGTQVTVSSSPSTPPTPSPSTPPASQVQLQESGGGLVQPGGSLRLSCAASGNIFSINAIGWYRQAPGKQRELVATITLSGSTNYADSVKGRFSISRDNAKNTVYLQMNSLKPEDTAVYYCNANTYSDSDVYGYWGQGTQVTVSSHHHHHH
notes: Two copies of Nb clone 1 in one chain joined by the human IgA hinge linker, with a C-terminal His tag; also called biv MMR linker 3 IgA; MMR biv IgA

binding result [4]: binds
B9: NbhMMRm16.95 (VHH)
VHH: QVQLQESGGGLVQPGGSLGLSCAASGRIASISAMGWYRQAPGKQRELVAAITGSGRTNYADSVKGRFTISRDNAKNTVYLQMNSLKPEDTAVYYCNLLMVDYGLGLGTDYWGQGTQVTVSS
notes: as for B3

Second part, the binder before the results:

B2: anti-MMR Nanobody clone 1 (VHH)
VHH: QVQLQESGGGLVQPGGSLRLSCAASGNIFSINAIGWYRQAPGKQRELVATITLSGSTNYADSVKGRFSISRDNAKNTVYLQMNSLKPEDTAVYYCNANTYSDSDVYGYWGQGTQVTVSS
notes: Monovalent alpaca VHH against mouse MMR; Alexa-fluor labelled for flow cytometry and immunofluorescence; also called Anti-MMR Nb1; anti-MMR Nb clone 1
fold higher apparent affinity compared to nanobody clone 3 [2]: 8 fold
Kd [3]: 23.1 nM

B5: bivalent anti-MMR Nanobody 1 with (Gly4Ser)3 linker (VHH)
chain: QVQLQESGGGLVQPGGSLRLSCAASGNIFSINAIGWYRQAPGKQRELVATITLSGSTNYADSVKGRFSISRDNAKNTVYLQMNSLKPEDTAVYYCNANTYSDSDVYGYWGQGTQVTVSSGGGGSGGGGSGGGGSQVQLQESGGGLVQPGGSLRLSCAASGNIFSINAIGWYRQAPGKQRELVATITLSGSTNYADSVKGRFSISRDNAKNTVYLQMNSLKPEDTAVYYCNANTYSDSDVYGYWGQGTQVTVSSHHHHHH
notes: Two copies of Nb clone 1 in one chain joined by a (G4S)3 linker, with a C-terminal His tag; also called biv MMR linker 1 GS; MMR biv (Gly4Ser)3
fold higher avidity compared to the monovalent clone 1 nanobody [2]: 5 fold
Kd [6]: 4.22 nM

B6: NbhMMRm15.43 (VHH)
VHH: QVQLQESGGTLVQPGGSLRLSCAASGSTFSINNMGWYRQAPGKQRELVAGITGGNTHYADSVKGRFTISRDNAKNTMYLQMNGLKPEDTAVYYCNANWGAYWGQGTQVTVSS
notes: as for B3
binding result [4]: binds

B8: bivalent anti-MMR Nanobody 1 with llama IgG2 hinge linker (VHH)
chain: QVQLQESGGGLVQPGGSLRLSCAASGNIFSINAIGWYRQAPGKQRELVATITLSGSTNYADSVKGRFSISRDNAKNTVYLQMNSLKPEDTAVYYCNANTYSDSDVYGYWGQGTQVTVSSAHHSEDPSSKAPKAPMAQVQLQESGGGLVQPGGSLRLSCAASGNIFSINAIGWYRQAPGKQRELVATITLSGSTNYADSVKGRFSISRDNAKNTVYLQMNSLKPEDTAVYYCNANTYSDSDVYGYWGQGTQVTVSSHHHHHH
notes: Two copies of Nb clone 1 in one chain joined by the llama IgG2 hinge linker, with a C-terminal His tag; also called biv MMR linker 2 g2c; MMR biv g2c
fold higher avidity compared to the monovalent clone 1 nanobody [2]: 5 fold
Kd [6]: 4.04 nM

B10: anti-MMR Nanobody clone 3 (VHH)
VHH: QVQLQESGGGLVQAGGSLRLSCAASGRTFSRDAMGWFRQAPGKEREFVAGISWSGGSTYYADSVKGRFTISRDGAKNTVNLQMNSLKPEDTAVYYCAASSIYGSAVVDGLYDYWGQGTQVTVSS
notes: also called Anti-MMR Nb3; Nb clone 3
Kd [3]: 191 nM
